Assay results from patent US20160158359A1.

How the values were obtained:
[1] = molecular target: recombinant HLA-A*02:01 MHC class I molecule (human); experiment: REVEAL MHC-peptide binding assay, stabilisation of ternary complex with recombinant MHC; details: remark: other sources report otherwise; scale: score, % of positive control peptide
[2] = molecular target: recombinant HLA-A*03:01 MHC class I molecule (human); experiment: as above; details: remark: other sources report otherwise; scale: score, % of positive control peptide
[3] = molecular target: HLA-A*03:01 recombinant MHC class I molecule (human); experiment: REVEAL MHC-peptide complex stabilisation assay, recombinant HLA-A*03:01; details: remark: other sources report otherwise
[4] = molecular target: HLA-A*11:01 recombinant MHC class I molecule (human); experiment: REVEAL MHC-peptide binding assay, stabilisation of ternary MHC-peptide complex, recombinant HLA; details: remark: other sources report otherwise; scale: % of positive control peptide
[5] = molecular target: HLA-B*08:01 recombinant MHC class I molecule (human); experiment: as above; details: remark: other sources report otherwise; scale: % of positive control peptide

For VAFIIFWVR [… synthetic 9-mer peptide (overlapping reference peptide 1, K29R)], the In Vitro Score [1] was 1.2 and the In Vitro Score [2] was 0.7.

For IFWVQRGAK […], the In Vitro Score (% of positive control peptide) [3] was 7.

With VAFIIFWVR the In Vitro Score [4] was 34.6 and the In Vitro Score [5] was 0.1.
